# Measurements published in FireProtDB.
# Several values for one entry are separate records, joined by “and”; a condition that tells them apart may be missing. Identical values can stand only once.
# B1: Peroxiredoxin-6 wild type, P30041 (protein)
# chain: MPGGLLLGDVAPNFEANTTVGRIRFHDFLGDSWGILFSHPRDFTPVCTTELGRAAKLAPEFAKRNVKLIALSIDSVEDHLAWSKDINAYNCEEPTEKLPFPIIDDRNRELAILLGMLDPAEKDEKGMPVTARVVFVFGPDKKLKLSILYPATTGRNFDEILRVVISLQLTAEKRVATPVDWKDGDSVMVLPTIPEEEAKKLFPKGVFTKELPSGKKYLRYTPQP
# B2: Cytochrome c-552 wild type, P15452 (protein)
# chain: MKKFLLVAVVGLAGITFANEQLAKQKGCMACHDLKAKKVGPAYADVAKKYAGRKDAVDYLAGKIKKGGSGVWGSVPMPPQNVTDAEAKQLAQWILSIK
# B3: Bacteriorhodopsin wild type, P02945 (protein)
# chain: MLELLPTAVEGVSQAQITGRPEWIWLALGTALMGLGTLYFLVKGMGVSDPDAKKFYAITTLVPAIAFTMYLSMLLGYGLTMVPFGGEQNPIYWARYADWLFTTPLLLLDLALLVDADQGTILALVGADGIMIGTGLVGALTKVYSYRFVWWAISTAAMLYILYVLFFGFTSKAESMRPEVASTFKVLRNVTVVLWSAYPVVWLIGSEGAGIVPLNIETLLFMVLDVSAKVGFGLILLRSRAIFGEAEAPEPSAGDGAAATSD
# B4: wild type, Q2YD82 (protein)
# chain: MDCAEGRAANLPCNHSTISGNEYVYWYRQIHSQGPQYIIHGLKNNETNEMASLIITEDRKSSTLILPHATLRDTAVYYCIVYDYGQNFVFGPGTRLSVLPYIQNPDPAVYQLRDSKSSDKSVCLFTDFDSQTNVSQSKDSDVYITDKTVLDMRSMDFKSNSAVAWSNKSDFACANAFNNSIIPEDTFFPSPESSCDVKLVEKSFETDTNLNFQNLSVIGFRILLLKVAGFNLLMTLRLWSS
# B5: wild type, Q96HL2 (protein)
# chain: MTKLRAQQCRFWTSFFPKVLEMTGNIDEAEWEWKAGFHRWNNYMMDWKNQFNDYTSKKESCVGL
# B6: Subtilisin Savinase wild type, P29600 (protein)
# chain: AQSVPWGISRVQAPAAHNRGLTGSGVKVAVLDTGISTHPDLNIRGGASFVPGEPSTQDGNGHGTHVAGTIAALNNSIGVLGVAPSAELYAVKVLGASGSGSVSSIAQGLEWAGNNGMHVANLSLGSPSPSATLEQAVNSATSRGVLVVAASGNSGAGSISYPARYANAMAVGATDQNNNRASFSQYGAGLDIVAPGVNVQSTYPGSTYASLNGTSMATPHVAGAAALVKQKNPSWSNVQIRNHLKNTATSLGSTNLYGSGLVNAEAATR
# B7: Protein P-30 wild type, P22069 (protein)
# chain: QDWLTFQKKHITNTRDVDCDNIMSTNLFHCKDKNTFIYSRPEPVKAICKGIIASKNVLTTSEFYLSDCNVTSRPCKYKLKKSTNKFCVTCENQAPVHFVGVGSC
# B8: Lysozyme C wild type, P61626 (protein)
# chain: MKALIVLGLVLLSVTVQGKVFERCELARTLKRLGMDGYRGISLANWMCLAKWESGYNTRATNYNAGDRSTDYGIFQINSRYWCNDGKTPGAVNACHLSCSALLQDNIADAVACAKRVVRDPQGIRAWVAWRNRCQNRDVRQYVQGCGV
# B9: Thymidylate synthase wild type, P00469 (protein)
# chain: MLEQPYLDLAKKVLDEGHFKPDRTHTGTYSIFGHQMRFDLSKGFPLLTTKKVPFGLIKSELLWFLHGDTNIRFLLQHRNHIWDEWAFEKWVKSDEYHGPDMTDFGHRSQKDPEFAAVYHEEMAKFDDRVLHDDAFAAKYGDLGLVYGSQWRAWHTSKGDTIDQLGDVIEQIKTHPYSRRLIVSAWNPEDVPTMALPPCHTLYQFYVNDGKLSLQLYQRSADIFLGVPFNIASYALLTHLVAHECGLEVGEFIHTFGDAHLYVNHLDQIKEQLSRTPRPAPTLQLNPDKHDIFDFDMKDIKLLNYDPYPAIKAPVAV
# B10: Tissue factor wild type, P13726 (protein)
# chain: METPAWPRVPRPETAVARTLLLGWVFAQVAGASGTTNTVAAYNLTWKSTNFKTILEWEPKPVNQVYTVQISTKSGDWKSKCFYTTDTECDLTDEIVKDVKQTYLARVFSYPAGNVESTGSAGEPLYENSPEFTPYLETNLGQPTIQSFEQVGTKVNVTVEDERTLVRRNNTFLSLRDVFGKDLIYTLYYWKSSSSGKKTAKTNTNEFLIDVDKGENYCFSVQAVIPSRTVNRKSTDSPVECMGQEKGEFREIFYIIGAVVFVVIILVIILAISLHKCRKAGVGQSWKENSPLNVS
# B11: Metallocarboxypeptidase inhibitor wild type, P81511 (protein)
# chain: MFLLVFLCCLHLVISSHTPDESFLCYQPDQVCCFICRGAAPLPSEGECNPHPTAPWCREGAVEWVPYSTGQCRTTCIPYVE
# B12: Cytochrome b5 type B wild type, O43169 (protein)
# chain: MSGSMATAEASGSDGKGQEVETSVTYYRLEEVAKRNSLKELWLVIHGRVYDVTRFLNEHPGGEEVLLEQAGVDASESFEDVGHSSDAREMLKQYYIGDIHPSDLKPESGSKDPSKNDTCKSCWAYWILPIIGAVLLGFLYRYYTSESKSS
# B13: Apolipophorin-3b wild type, P10762 (protein)
# chain: MNTLLAVLMLAVAAQARPDAAGHVNIAEAVQQLNHTIVNAAHELHETLGLPTPDEALNLLTEQANAFKTKIAEVTTSLKQEAEKHQGSVAEQLNRFARNLNNSIHDAATSAQPADQLNSLQSALTNVGHQWQTSQPRPSVAQEAWAPVQSALQEAAEKTKEAAANLQNSIQSAVQKPAN
# B14: Endo-1,4-beta-xylanase 2 wild type, P36217 (protein)
# chain: MVSFTSLLAGVAAISGVLAAPAAEVESVAVEKRQTIQPGTGYNNGYFYSYWNDGHGGVTYTNGPGGQFSVNWSNSGNFVGGKGWQPGTKNKVINFSGSYNPNGNSYLSVYGWSRNPLIEYYIVENFGTYNPSTGATKLGEVTSDGSVYDIYRTQRVNQPSIIGTATFYQYWSVRRNHRSSGSVNTANHFNAWAQQGLTLGTMDYQIVAVEGYFSSGSASITVS
# B15: Persulfide dioxygenase ETHE1, mitochondrial wild type, O95571 (protein)
# chain: MAEAVLRVARRQLSQRGGSGAPILLRQMFEPVSCTFTYLLGDRESREAVLIDPVLETAPRDAQLIKELGLRLLYAVNTHCHADHITGSGLLRSLLPGCQSVISRLSGAQADLHIEDGDSIRFGRFALETRASPGHTPGCVTFVLNDHSMAFTGDALLIRGCGRTDFQQGCAKTLYHSVHEKIFTLPGDCLIYPAHDYHGFTVSTVEEERTLNPRLTLSCEEFVKIMGNLNLPKPQQIDFAVPANMRCGVQTPTA
# B16: SNARE-associated protein Snapin wild type, O95295 (protein)
# chain: MAGAGSAAVSGAGTPVAGPTGRDLFAEGLLEFLRPAVQQLDSHVHAVRESQVELREQIDNLATELCRINEDQKVALDLDPYVKKLLNARRRVVLVNNILQNAQERLRRLNHSVAKETARRRAMLDSGIYPPGSPGK
# B17: Arginine kinase wild type, P14208 (protein)
# chain: MADAATIAKLEEGFKKLEAATDCKSLLKKYLSKDIFDSLKAKKTSLGATLLDVIQSGVENLDSGVGIYAPDAEAYSLFAPLFDPIIEDYHKGFKQTDKHPAKDFGDVSKFINVDPEGTFVISTRVRCGRSMEGYPFNPCLTEAQYKEMEEKVSSTLSGLEGELKGSYFPLTGMTKEVQQKLIDDHFLFKEGDRFLQAANACRYWPAGRGIYHNDNKTFLVWCNEEDHLRIISMQMGGDLGQVYRRLVSAVNDIEKRVPFSHHDRLGFLTFCPTNLGTTVRASVHIKLPKLAANREKLEEVAAKFSLQVRGTRGEHTEAEGGIYDISNKRRMGLTEFQAVKEMQDGILELIKIEKEM
# B18: Protease inhibitors wild type, P80060 (protein)
# chain: MKFALALCAAVLLVVLVQAEEKCTPGQVKQQDCNTCTCTPTGVWGCTRKGCQPAKREISCEPGKTFKDKCNTCRCGADGKSAACTLKACPNQ
# B19: Glycodelin wild type, P09466 (protein)
# chain: MLCLLLTLGVALVCGVPAMDIPQTKQDLELPKLAGTWHSMAMATNNISLMATLKAPLRVHITSLLPTPEDNLEIVLHRWENNSCVEKKVLGEKTENPKKFKINYTVANEATLLDTDYDNFLFLCLQDTTTPIQSMMCQYLARVLVEDDEIMQGFIRAFRPLPRHLWYLLDLKQMEEPCRF
# Details: whole UniProt chain shown
# [1] = Homo sapiens, pH 7.4, 25 °C, Urea, CD, transition: 2, reversible: yes
# [2] = Homo sapiens, pH 7.4, 25 °C, Urea, absorbance, transition: 2, reversible: yes
# [3] = Homo sapiens, pH 7.4, 25 °C, Urea, fluorescence, transition: 2, reversible: yes
# [4] = Hydrogenobacter thermophilus (strain DSM 6534 / IAM 12695 / TK-6), pH 7, Thermal, CD, KH2PO4-NaOH 10 mM, reversible: yes
# [5] = Halobacterium salinarum (strain ATCC 700922 / JCM 11081 / NRC-1), pH 6.5, Thermal, DSC, None, reversible: no
# [6] = Halobacterium salinarum (strain ATCC 700922 / JCM 11081 / NRC-1), pH 7, Thermal, DSC, Potassium phosphate 3 mM, KCl 150 mM, reversible: no
# [7] = Lithobates pipiens, pH 6, 25 °C, GdnHCl, DSC, MES 100 mM, reversible: yes
# [8] = Homo sapiens, pH 5.2, 20 °C, GdnHCl, CD, Sodium acetate 20 mM, reversible: yes
# [9] = Homo sapiens, pH 7.5, 23 °C, GdnHCl, Fluorescence, Tris-HCl 50 mM, reversible: yes
# [10] = Locusta migratoria, pH 7, 25 °C, GdnHCl, CD, Sodium phosphate 50 mM, KCl 100 mM, reversible: yes
# [11] = Locusta migratoria, pH 3, 20 °C, Thermal, NMR, Unknown
# [12] = Homo sapiens, pH 6.2, 25 °C, 2-Propanol, CD, Piperazine Unknown, NaCl 30 mM, transition: 2, reversible: Yes
protein,measurement,setting,value
B1,denaturant m value,[1],1.02 kcal/mol/M
same,denaturant midpoint (higher = more stable),[1],3.02 M
same,unfolding free energy,[1],3.17 kcal/mol
same,denaturant m value,[2],1.03 kcal/mol/M
same,denaturant midpoint (higher = more stable),[2],2.71 M
same,unfolding free energy,[2],2.82 kcal/mol
same,denaturant m value,[3],1.04 kcal/mol/M
same,denaturant midpoint (higher = more stable),[3],2.74 M
same,unfolding free energy,[3],2.88 kcal/mol
B2,Tm,[4],90 °C
same,unfolding enthalpy (van 't Hoff),[4],83.5 kcal/mol
B3,Tm,[5],96 °C
same,unfolding enthalpy (calorimetric),[5],83.7 kcal/mol
same,Tm,[6],85 °C
same,unfolding enthalpy (calorimetric),[6],23 kcal/mol
same,unfolding enthalpy (van 't Hoff),[6],76 kcal/mol
same,Tm,"Halobacterium salinarum (strain ATCC 700922 / JCM 11081 / NRC-1), pH 7.5, Thermal, DSC, phosphate 190 mM, reversible: no",95.1 °C
same,Tm,"Halobacterium salinarum (strain ATCC 700922 / JCM 11081 / NRC-1), pH 7.9, Thermal, CD, glycylglycine 50 mM, NaCl 100 mM, reversible: no",79 °C
same,Tm,"Halobacterium salinarum (strain ATCC 700922 / JCM 11081 / NRC-1), pH 9.5, Thermal, DSC, carbonate 50 mM, NaCl 100 mM, reversible: no",81 °C
B4,Tm,"Homo sapiens, Thermal, fluorescence",54.9 °C and 53.3 °C
B5,Tm,"Homo sapiens, pH 8, Thermal, DSC, sodium phosphate 50 mM",62.8 °C
B6,Tm,"Lederbergia lenta, pH 8.8, Thermal, CD, Tris buffer 100 mM, reversible: No",77.2 °C and 79.2 °C
same,Tm,"Lederbergia lenta, pH 9, Thermal, DSC, boric acid 100 mM, CaCl2 2 mM",72.7 °C and 75.5 °C
B7,denaturant m value,[7],3.08 kcal/mol/M
same,denaturant midpoint (higher = more stable),[7],4.5 M
same,unfolding free energy,[7],13.9 kcal/mol
B8,unfolding free energy,"Homo sapiens, pH 3, 10 °C, GdnHCl, Fluorescence, glycine-HCl 40 mM, reversible: yes",11.8 kcal/mol
same,unfolding free energy,"Homo sapiens, pH 4, 10 °C, GdnHCl, CD, glycine-HCl 40 mM, reversible: yes",14 kcal/mol
same,denaturant m value,[8],3.6 kcal/mol/M
same,denaturant midpoint (higher = more stable),[8],4.12 M
same,unfolding free energy,[8],14.7 kcal/mol
B9,unfolding free energy,"Lacticaseibacillus casei, pH 7, 4 °C, Urea, CD, KHPO4 20 mM, KCl 0.5 M, reversible: yes",19.1 kcal/mol
B10,denaturant midpoint (higher = more stable),[9],1.35 M
same,unfolding free energy,[9],6.3 kcal/mol
B11,denaturant midpoint (higher = more stable),"Hirudo medicinalis, pH 8.4, 23 °C, GdnHCl, Fluorescence, Tris-HCl 0.1 M",3.6 M
same,denaturant midpoint (higher = more stable),"Hirudo medicinalis, pH 8.4, 23 °C, GdnSCN, Fluorescence, Tris-HCl 0.1 M",2.4 M
B12,denaturant midpoint (higher = more stable),"Homo sapiens, pH 7, 25 °C, GdmSCN, UV/visible spectrophotometer, MOPS 30mM",1.86 M
same,Tm,"Homo sapiens, pH 7, Thermal, UV/visible spectrophotometer, Potassium phosphate 50mM",85.7 °C
B13,denaturant m value,[10],3.46 kcal/mol/M and 4.33 kcal/mol/M
same,denaturant midpoint (higher = more stable),[10],0.6 M and 0.27 M
B14,Tm,"Hypocrea jecorina (strain ATCC 56765 / BCRC 32924 / NRRL 11460 / Rut C-30), pH 5, Thermal, DSC, citrate - phosphate buffer 50 mM",61.4 °C
B15,Tm,"Homo sapiens, pH 7.5, Thermal, CD, Tris-HCl 50mM, NaCl 150mM, transition: 2",62 °C
B16,Tm,"Homo sapiens, pH 7.4, Thermal, CD, Tris 50 mM",57.9 °C
B17,unfolding free energy,"Homarus gammarus, pH 7.4, 22 °C, GdnHCl, CD, Sodium phosphate 100 mM",5.98 kcal/mol
B18,unfolding enthalpy (van 't Hoff),[11],19.3 kcal/mol
same,unfolding free energy,[11],1.1 kcal/mol
B19,denaturant m value,[12],1.5 kcal/mol/M
same,denaturant midpoint (higher = more stable),[12],3.5 M
same,unfolding free energy,[12],5.4 kcal/mol
